How the values were obtained:
C5a (Homo sapiens) = C5a (Homo sapiens) (UniProt P01031); experiment: SPR; conditions: cited from earlier work
R37A_(core) (human) = experiment: SPR; BIAcore X100, NTA sensor chip with about 20-25 RU of immobilised His-tagged C5a form (ligand), ScpA form flowed as ligate at 30 uL/min, 25 °C, 10 mM Hepes-KOH pH 7.4, 150 mM NaCl, 0.005% Tween 20, 50 uM EDTA; global fit, 1:1 Langmuir model with drifting baseline; triplicate
rhC5a_(R40A) (human) = experiment: as above
rhC5a_(core) (human) = experiment: as above
R46A_(core) (human) = experiment: as above
R40A_(core) (human) = experiment: as above
rhC5a_(R37A) (human) = experiment: as above
rhC5a_(R46A) (human) = experiment: as above

Chain of ScpA (P58099 32-1147): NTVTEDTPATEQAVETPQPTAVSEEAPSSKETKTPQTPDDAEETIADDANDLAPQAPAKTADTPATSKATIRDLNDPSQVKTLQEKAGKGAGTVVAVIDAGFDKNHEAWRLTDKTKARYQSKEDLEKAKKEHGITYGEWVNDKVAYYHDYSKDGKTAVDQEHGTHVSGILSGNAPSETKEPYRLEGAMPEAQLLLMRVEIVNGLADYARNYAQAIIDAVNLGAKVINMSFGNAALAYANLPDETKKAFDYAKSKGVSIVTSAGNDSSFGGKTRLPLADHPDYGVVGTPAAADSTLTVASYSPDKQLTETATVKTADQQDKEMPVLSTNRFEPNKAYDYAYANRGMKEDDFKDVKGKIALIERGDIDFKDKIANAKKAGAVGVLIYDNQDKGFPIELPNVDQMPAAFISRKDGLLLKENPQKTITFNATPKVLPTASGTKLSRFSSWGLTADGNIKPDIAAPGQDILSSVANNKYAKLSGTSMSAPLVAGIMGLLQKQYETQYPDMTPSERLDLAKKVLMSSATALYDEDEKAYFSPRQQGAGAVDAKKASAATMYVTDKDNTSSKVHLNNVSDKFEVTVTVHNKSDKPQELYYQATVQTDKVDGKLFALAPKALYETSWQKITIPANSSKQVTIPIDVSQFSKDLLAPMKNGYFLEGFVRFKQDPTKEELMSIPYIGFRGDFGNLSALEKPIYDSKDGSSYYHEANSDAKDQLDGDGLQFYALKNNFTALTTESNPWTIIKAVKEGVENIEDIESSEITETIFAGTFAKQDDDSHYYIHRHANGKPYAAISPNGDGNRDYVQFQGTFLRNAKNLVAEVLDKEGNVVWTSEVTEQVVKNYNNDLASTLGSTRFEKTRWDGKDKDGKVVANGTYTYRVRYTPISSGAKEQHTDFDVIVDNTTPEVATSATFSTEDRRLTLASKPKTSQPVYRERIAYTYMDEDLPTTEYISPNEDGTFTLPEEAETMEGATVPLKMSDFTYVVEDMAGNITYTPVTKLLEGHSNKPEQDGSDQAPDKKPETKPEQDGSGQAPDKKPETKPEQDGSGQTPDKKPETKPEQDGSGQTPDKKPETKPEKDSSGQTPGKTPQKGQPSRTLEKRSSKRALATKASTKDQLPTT
Chain of C5a (Homo sapiens) (P01031 678-751): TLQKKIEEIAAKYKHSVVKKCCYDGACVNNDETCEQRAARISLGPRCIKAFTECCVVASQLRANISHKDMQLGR

Molecule | Kd (R37A_(core) (human)) | koff (R37A_(core) (human)) | kon (R37A_(core) (human)) | Kd (rhC5a_(R40A) (human)) | koff (rhC5a_(R40A) (human)) | kon (rhC5a_(R40A) (human)) | Kd (rhC5a_(core) (human)) | koff (rhC5a_(core) (human)) | kon (rhC5a_(core) (human)) | Kd (R46A_(core) (human)) | koff (R46A_(core) (human)) | kon (R46A_(core) (human)) | Kd (R40A_(core) (human)) | koff (R40A_(core) (human)) | kon (R40A_(core) (human)) | Kd (rhC5a_(R37A) (human)) | koff (rhC5a_(R37A) (human)) | kon (rhC5a_(R37A) (human)) | Kd (rhC5a_(R46A) (human)) | koff (rhC5a_(R46A) (human)) | also measured
ScpA (from UniProt P58099) | – | – | – | – | – | – | – | – | – | – | – | – | – | – | – | – | – | – | – | – | Kd (C5a (Homo sapiens)): 35 nM
ScpA_(S512A) (enzyme) ANTVTEDTPVTEQAVETPQPTAVSEEVPSSKETKTPQTPDDAEETIADDANDLAPQAPAKTADTPATSKATIRDLNDPSQVKTLQEKAGKGAGTVVAVIDAGFDKNHEAWRLTDKTKARYQSKEDLEKAKKEHGITYGEWVNDKVAYYHDYSKDGKTAVDQEHGTHVSGILSGNAPSETKEPYRLEGAMPEAQLLLMRVEIVNGLADYARNYAQAIRDAVNLGAKVINMSFGNAALAYANLPDETKKAFDYAKSKGVSIVTSAGNDSSFGGKTRLPLADHPDYGVVGTPAAADSTLTVASYSPDKQLTETAMVKTDDQQDKEMPVLSTNRFEPNKAYDYAYANRGMKEDDFKDVKGKIALIERGDIDFKDKVANAKKAGAVGVLIYDNQDKGFPIELPNVDQMPAAFISRKDGLLLKDNPQKTITFNATPKVLPTASGTKLSRFSSWGLTADGNIKPDIAAPGQDILSSVANNKYAKLSGTAMSAPLVAGIMGLLQKQYETQYPDMTPSERLDLAKKVLMSSATALYDEDEKAYFSPRQQGAGAVDAKKASAATMYVTDKDNTSSKVHLNNVSDKFEVTVTVHNKSDKPQELYYQATVQTDKVDGKHFALAPKVLYEASWQKITIPANSSKQVTVPIDASRFSKDLLAQMKNGYFLEGFVRFKQDPTKEELMSIPYIGFRGDFGNLSAVEKPIYDSKDGSSYYHEANSDAKDQLDGDGLQFYALKNNFTALTTESNPWTIIKAVKEGVENIEDIESSEITETIFAGTFAKQDDDSHYYIHRHANGEPYAAISPNGDGNRDYVQFQGTFLRNAKNLVAEVLDKEGNVVWTSEVTEQVVKNYNNDLASTLGSTRFEKTRWDGKDKDGKVVANGTYTYRVRYTPISSGAKEQHTDFDVIVDNTTPEVATSATFSTEDRRLTLASKPKTSQPVYRERIAYTYMDEDLPTTEYISPNEDGTFTLPEEAETMEGATVPLKMSDFTYVVEDMAGNITYTPVTKLLEGHS | 453 nM | 0.0151 s⁻¹ | 33300 M⁻¹ s⁻¹ | 290 nM | 0.0274 s⁻¹ | 94400 M⁻¹ s⁻¹ | 170 nM | 0.0075 s⁻¹ | 45000 M⁻¹ s⁻¹ | 691 nM | 0.0152 s⁻¹ | 22000 M⁻¹ s⁻¹ | 1340 nM | 0.0258 s⁻¹ | 19300 M⁻¹ s⁻¹ | 217 nM | 0.0176 s⁻¹ | 81200 M⁻¹ s⁻¹ | 220 nM | 0.0226 s⁻¹ | kon (rhC5a_(R46A) (human)): 103000 M⁻¹ s⁻¹
ScpA_(S512A,D889A) (enzyme) ANTVTEDTPVTEQAVETPQPTAVSEEVPSSKETKTPQTPDDAEETIADDANDLAPQAPAKTADTPATSKATIRDLNDPSQVKTLQEKAGKGAGTVVAVIDAGFDKNHEAWRLTDKTKARYQSKEDLEKAKKEHGITYGEWVNDKVAYYHDYSKDGKTAVDQEHGTHVSGILSGNAPSETKEPYRLEGAMPEAQLLLMRVEIVNGLADYARNYAQAIRDAVNLGAKVINMSFGNAALAYANLPDETKKAFDYAKSKGVSIVTSAGNDSSFGGKTRLPLADHPDYGVVGTPAAADSTLTVASYSPDKQLTETAMVKTDDQQDKEMPVLSTNRFEPNKAYDYAYANRGMKEDDFKDVKGKIALIERGDIDFKDKVANAKKAGAVGVLIYDNQDKGFPIELPNVDQMPAAFISRKDGLLLKDNPQKTITFNATPKVLPTASGTKLSRFSSWGLTADGNIKPDIAAPGQDILSSVANNKYAKLSGTAMSAPLVAGIMGLLQKQYETQYPDMTPSERLDLAKKVLMSSATALYDEDEKAYFSPRQQGAGAVDAKKASAATMYVTDKDNTSSKVHLNNVSDKFEVTVTVHNKSDKPQELYYQATVQTDKVDGKHFALAPKVLYEASWQKITIPANSSKQVTVPIDASRFSKDLLAQMKNGYFLEGFVRFKQDPTKEELMSIPYIGFRGDFGNLSAVEKPIYDSKDGSSYYHEANSDAKDQLDGDGLQFYALKNNFTALTTESNPWTIIKAVKEGVENIEDIESSEITETIFAGTFAKQDDDSHYYIHRHANGEPYAAISPNGDGNRDYVQFQGTFLRNAKNLVAEVLDKEGNVVWTSEVTEQVVKNYNNDLASTLGSTRFEKTRWAGKDKDGKVVANGTYTYRVRYTPISSGAKEQHTDFDVIVDNTTPEVATSATFSTEDRRLTLASKPKTSQPVYRERIAYTYMDEDLPTTEYISPNEDGTFTLPEEAETMEGATVPLKMSDFTYVVEDMAGNITYTPVTKLLEGHS | 384 nM | 0.0115 s⁻¹ | 30100 M⁻¹ s⁻¹ | 94.9 nM | 0.0259 s⁻¹ | 273000 M⁻¹ s⁻¹ | 90 nM | 0.004 s⁻¹ | 44400 M⁻¹ s⁻¹ | 965 nM | 0.0121 s⁻¹ | 12500 M⁻¹ s⁻¹ | 734 nM | 0.0182 s⁻¹ | 24800 M⁻¹ s⁻¹ | 68.3 nM | 0.00934 s⁻¹ | 137000 M⁻¹ s⁻¹ | 86.6 nM | 0.0129 s⁻¹ | kon (rhC5a_(R46A) (human)): 148000 M⁻¹ s⁻¹
ScpA_(S512A,E864A) (enzyme) ANTVTEDTPVTEQAVETPQPTAVSEEVPSSKETKTPQTPDDAEETIADDANDLAPQAPAKTADTPATSKATIRDLNDPSQVKTLQEKAGKGAGTVVAVIDAGFDKNHEAWRLTDKTKARYQSKEDLEKAKKEHGITYGEWVNDKVAYYHDYSKDGKTAVDQEHGTHVSGILSGNAPSETKEPYRLEGAMPEAQLLLMRVEIVNGLADYARNYAQAIRDAVNLGAKVINMSFGNAALAYANLPDETKKAFDYAKSKGVSIVTSAGNDSSFGGKTRLPLADHPDYGVVGTPAAADSTLTVASYSPDKQLTETAMVKTDDQQDKEMPVLSTNRFEPNKAYDYAYANRGMKEDDFKDVKGKIALIERGDIDFKDKVANAKKAGAVGVLIYDNQDKGFPIELPNVDQMPAAFISRKDGLLLKDNPQKTITFNATPKVLPTASGTKLSRFSSWGLTADGNIKPDIAAPGQDILSSVANNKYAKLSGTAMSAPLVAGIMGLLQKQYETQYPDMTPSERLDLAKKVLMSSATALYDEDEKAYFSPRQQGAGAVDAKKASAATMYVTDKDNTSSKVHLNNVSDKFEVTVTVHNKSDKPQELYYQATVQTDKVDGKHFALAPKVLYEASWQKITIPANSSKQVTVPIDASRFSKDLLAQMKNGYFLEGFVRFKQDPTKEELMSIPYIGFRGDFGNLSAVEKPIYDSKDGSSYYHEANSDAKDQLDGDGLQFYALKNNFTALTTESNPWTIIKAVKEGVENIEDIESSEITETIFAGTFAKQDDDSHYYIHRHANGEPYAAISPNGDGNRDYVQFQGTFLRNAKNLVAEVLDKEGNVVWTSEVTAQVVKNYNNDLASTLGSTRFEKTRWDGKDKDGKVVANGTYTYRVRYTPISSGAKEQHTDFDVIVDNTTPEVATSATFSTEDRRLTLASKPKTSQPVYRERIAYTYMDEDLPTTEYISPNEDGTFTLPEEAETMEGATVPLKMSDFTYVVEDMAGNITYTPVTKLLEGHS | 532 nM | 0.0121 s⁻¹ | 22800 M⁻¹ s⁻¹ | 346 nM | 0.0271 s⁻¹ | 78500 M⁻¹ s⁻¹ | 88.7 nM | 0.00438 s⁻¹ | 49300 M⁻¹ s⁻¹ | 624 nM | 0.0132 s⁻¹ | 21200 M⁻¹ s⁻¹ | 751 nM | 0.0195 s⁻¹ | 26100 M⁻¹ s⁻¹ | 67.1 nM | 0.0101 s⁻¹ | 150000 M⁻¹ s⁻¹ | 62.1 nM | 0.0213 s⁻¹ | kon (rhC5a_(R46A) (human)): 344000 M⁻¹ s⁻¹

Source: publication PMC9464890, “Exosite binding modulates the specificity of the immunomodulatory enzyme ScpA, a C5a inactivating bacterial protease” (Computational and Structural Biotechnology Journal, 2022)
